{
  "source": "patent US7442518B2",
  "about": "“Imaging regulated protein-protein interactions in cells and living animals by enhanced luciferase protein fragment complementation” (Washington University, priority 2003, dated 2008)",
  "molecules": {"B1": {"name": "IFN-γ: interferon-γ, activates JAK1-mediated phosphorylation of STAT1 on Y701 (protein, UniProt P01579 24-161, looked up)", "Interferon gamma": "QDPYVKEAENLKKYFNAGHSDVADNGTLFLGILKNWKEESDRKIMQSQIVSFYFKLFKNFKDDQSIQKSVETIKEDMNVKFFNSNKKKRDDFEKLTNYSVTDLNVQRKAIHELIQVMAELSPAAKTGKRKRSQMLFRG"}},
  "key": {"[1]": {"tested_on": "Cdc25C-NLuc/CLuc-14-3-3ε LCI pair", "test": "LCI of Cdc25C/14-3-3ε interaction in HEK-293 cells", "type": "cell-based, human", "conditions": "UCN-01 1 μM, 6 hrs", "procedure": "HEK-293 cells transfected with Cdc25C-NLuc/CLuc-14-3-3ε or mutant S216A Cdc25C-NLuc/CLuc-14-3-3ε were treated with vehicle alone or UCN-01 (1 μM) for 6 hrs prior to LCI. Data are expressed as percent of bioluminescence relative to untreated Cdc25C-NLuc/CLuc-14-3-3ε in cells and represent the mean±SEM of three independent experiments, n=4 each.\nTo replace the FRB with human Cdc25C or human p91 STAT1 (J. E. Darnell Jr., The Rockefeller University, 1230 York Avenue, NY, N.Y. 10021, USA.) in the NLuc fusion vector, open reading frames of these cDNAs were amplified by PCR using 5′ primers containing a BamHI site and Kozak consensus sequence upstream of the start site and 3′ primers which reconstituted the linker region up to the BsiWI site. FRB was replaced using the BamHI and BsiWI sites. FKBP was similarly replaced with 14-3-3ε or STAT1 using BsiWI at the 3′ end and EcoRV at the 5′ end.\nCells (1×10^4/well in 100 μl media) were transferred to 96-well black walled plates 16-24 hrs after transfection. At the times indicated, growth media was replaced with media containing appropriate drugs or vehicles. To image live cells, D-luciferin (10 μl of 1.5 mg/ml in PBS) was added to wells. Photon flux for each well was measured 8-10 min after addition of D-luciferin with an IVIS CCD camera (1 min exposure, f-stop=1, binning 8, FOV 15 cm). […]"}, "[2]": {"tested_on": "phosphorylation of Cdc25C-NLuc on S216", "test": "Western blot of phospho-S216 Cdc25C-NLuc in HEK-293 cells", "type": "cell-based, human", "conditions": "UCN-01 1 μM, 6 hrs", "procedure": "Cells were left untreated or treated with UCN-01 (1 μM) for 6 hrs prior to lysis, processed for Western analysis and then probed with the antibodies indicated to visualize expression, phosphorylation, and the effect of UCN-01 on the LCI constructs.\nCells (3×10^6/10 cm dish) were transfected with the indicated plasmids (6 μg each). Media was removed 6 hrs prior to lysis and replaced with media containing UCN-01 at the concentrations indicated. Cells were washed with PBS and lysed by incubation for 30 min at 4° C. with 1 ml RIPA buffer containing protease inhibitors (50 mM tris-HCl, pH 7.4, 1% NP-40, 0.25% deoxycholic acid, 150 mM NaCl, 1 mM EDTA, 1 mM each PMSF, sodium orthovanadate, and NaF, 1 μg/ml each leupeptin, aprotinin, pepstatin). After centrifugation to remove insoluble material, protein concentration was determined by BCA (Pierce Biotechnology, Inc., Customer Service Department, P.O. Box 117, Rockford, Ill. 61105 U.S.A). The Bicinchoninic Acid (BCA) test to determine protein concentration is a highly sensitive alternate assay to the Lowry assay.\nProteins (200 μg) were separated by SDS-PAGE and analyzed using polyclonal primary antibodies against pGL3 luciferase (Promega US, 2800 Woods Hollow Road, Madison Wis. 53711, USA) or phospho-S216-Cdc25C (Santa Cruz Biotechnologies, 2145 Delaware Avenue, Santa Cruz, Calif. 95060, U.S.A.). […]"}, "[3]": {"biological_target": "FRB domain of human mTOR / FKBP-12 (FRB-NLuc/CLuc-FKBP LCI pair) (Homo sapiens, UniProt P42345+P62942)", "sequence (P42345 2024-2113)": "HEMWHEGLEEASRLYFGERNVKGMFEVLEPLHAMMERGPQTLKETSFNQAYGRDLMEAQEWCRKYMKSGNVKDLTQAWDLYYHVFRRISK", "sequence (P62942 2-108)": "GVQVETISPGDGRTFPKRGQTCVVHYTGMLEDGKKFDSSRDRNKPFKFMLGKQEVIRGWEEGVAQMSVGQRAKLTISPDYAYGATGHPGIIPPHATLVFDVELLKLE", "test": "Luciferase complementation imaging (LCI) of rapamycin-induced FRB/FKBP association in live HEK-293 cells", "type": "cell-based", "conditions": "HEK293, read-out: EC90 of rapamycin; HEK-293 cells transfected with FRB-NLuc/CLuc-FKBP", "description": "Data, expressed as mean photon flux±SEM of quadruplicate wells, are representative of three independent tests.\nHEK-293 cells were cultured in Dulbecco's Modified Eagle Medium (DMEM), (Life Technologies, 2575 University Ave. W., St. Paul, Minn. 55114 USA) supplemented with 10% fetal calf serum (FCS), 1% glutamine, 0.1% P/S, 0.1% fungizone. Cells (3×10^6/10 cm dish or 1.5×10^5 per 35 mm dish) were transiently co-transfected with pairs of plasmids as indicated using FuGene-6 (Roche) according to the manufacturers directions."}, "[4]": {"tested_on": "STAT1-NLuc/CLuc-STAT1 LCI pair", "test": "LCI of STAT1-NLuc/CLuc-STAT1 in intact transduced cells (HEK-293, 2ftgh, U3A)", "type": "cell-based, human", "conditions": "any time or any dose", "procedure": "Each transduced cell line was sorted by FACS for expression of appropriate fluorescence markers (EGFP and mRFP) to enrich for cells carrying the imaging constructs. These enriched populations were seeded in a 96-well format (10^4 cells/well), and left untreated or treated with […] (1000 U/ml for 30 min). Bars represent the mean +/−SEM (n=4) for a representative test. Note the y-axis log scale.\nThe STAT1-NLuc and CLuc-STAT1 open reading frames were cloned into lentiviral vectors (gift of J. Milbrandt, Washington University in St. Louis, One Brookings Drive, St. Louis, Mo. 63130, USA ) downstream of a CMV promoter and upstream of an IRES linked to EGFP (Clontech) or mRFP (R. Tsien, UCSD), respectively.\nCells (1×10^4/well in 100 μl media) were transferred to 96-well black walled plates 16-24 hrs after transfection. At the times indicated, growth media was replaced with media containing appropriate drugs or vehicles. To image live cells, D-luciferin (10 μl of 1.5 mg/ml in PBS) was added to wells. Photon flux for each well was measured 8-10 min after addition of D-luciferin with an IVIS CCD camera (1 min exposure, f-stop=1, binning 8, FOV 15 cm). Cell lyastes used for imaging were prepared using Reporter Lysis Buffer (Promega US, 2800 Woods Hollow Road, Madison Wis. 53711, USA) according to the manufacturers directions."}, "[5]": {"tested_on": "Y701F mutant STAT1 LCI pair", "test": "Bioluminescence of nuclear extracts of cells expressing the Y701F mutant STAT1 LCI pair", "type": "cell-based, human", "conditions": "IFN-γ 20 min, 100 U/ml, HEK-293", "procedure": "HEK-293 cells were transiently transfected with STAT1-NLuc/CLuc-STAT1, the Y701F STAT1 mutant LCI pair, or intact luciferase. Forty-eight hours after transfection, cells were left untreated or treated with IFN-γ (1000 U/ml for 20 min) (n=3 for each) and then extracts prepared. To measure bioluminescence in extracts, an assay buffer including D-luciferin and ATP (Luciferase Assay Buffer, Promega, USA) was added to duplicate samples of each extract. Bars show the ratio +/−SEM of mean photon flux/μg protein for extracts of IFN-γ treated over untreated cells. […] Duplicate determinations are vertically arranged with independent extracts arrayed horizontally.\nTo confirm that phosphorylated STAT1 LCI pairs were biologically functional, the inventors measured the IFN-γ-inducible nuclear accumulation of bioluminescence activity. Cytoplasmic and nuclear extracts were prepared from untreated and IFN-γ-treated HEK-293 cells transiently co-transfected with the STAT1-NLuc/CLuc-STAT1 LCI pair, the Y701F mutant pair, or intact luciferase. […] Western blots of the cytoplasmic and nuclear extracts used in FIG. 16. confirmed purity of the extracts, neither fraction showing cross-contamination as assessed by the marker proteins β-tubulin (cytoplasm) and Topo II (nucleus), respectively (data not shown). […]"}, "[6]": {"tested_on": "STAT1-NLuc, CLuc-STAT1, endogenous p91 and p84 STAT1 phosphorylation", "test": "Western blot of Y701 phosphorylation of STAT1 reporters and endogenous STAT1 in HEK-293 cells", "type": "cell-based, human", "conditions": "IFN-γ 1000 U/ml, 30 min", "procedure": "Cells were left untreated or treated with IFN-γ (1000 U/ml) for 30 min prior to lysis, processed for Western analysis and then probed with the antibodies indicated to visualize expression and IFN-γ-induced phosphorylation of STAT1-NLuc (grey arrows), CLuc-STAT1 (black arrows), and endogenous p91 and p84 STAT1 (unfilled arrows). Intact luciferase expression (hatched arrow) is also shown. Note that while STAT1-NLuc could not be visualized using the STAT1 antibody, the fusion could be visualized with both Luc and phospho-STAT1 antibodies."}, "[7]": {"tested_on": "STAT1-NLuc/CLuc-STAT1 LCI pair (nuclear accumulation)", "test": "Bioluminescence of nuclear extracts of cells expressing STAT1-NLuc/CLuc-STAT1", "type": "cell-based, human", "procedure": "HEK-293 cells were transiently transfected with STAT1-NLuc/CLuc-STAT1, the Y701F STAT1 mutant LCI pair, or intact luciferase. […] To measure bioluminescence in extracts, an assay buffer including D-luciferin and ATP (Luciferase Assay Buffer, Promega, USA) was added to duplicate samples of each extract. Bars show the ratio +/−SEM of mean photon flux/μg protein for extracts of IFN-γ treated over untreated cells. […] Duplicate determinations are vertically arranged with independent extracts arrayed horizontally.\nTo confirm that phosphorylated STAT1 LCI pairs were biologically functional, the inventors measured the IFN-γ-inducible nuclear accumulation of bioluminescence activity. Cytoplasmic and nuclear extracts were prepared from untreated and IFN-γ-treated HEK-293 cells transiently co-transfected with the STAT1-NLuc/CLuc-STAT1 LCI pair, the Y701F mutant pair, or intact luciferase. […] Western blots of the cytoplasmic and nuclear extracts used in FIG. 16. confirmed purity of the extracts, neither fraction showing cross-contamination as assessed by the marker proteins β-tubulin (cytoplasm) and Topo II (nucleus), respectively (data not shown). Western blots also confirmed virtually identical expression levels of wild-type and Y701F mutant LCI pairs as well as appropriate phosphorylation of STAT1 proteins and reporters (data not shown)."}},
  "data": [
    {"molecule": "CN[C@@H]1C[C@H]2O[C@@](C)([C@@H]1OC)n1c3ccccc3c3c4c(c5c6ccccc6n2c5c31)C(=O)N[C@@H]4O", "note": "[UCN-01]", "values": [
      {"measurement": "effect on bioluminescence of Cdc25C-NLuc/CLuc-14-3-3ε", "setting": "[1]", "result": "decreased bioluminescence"},
      {"measurement": "effect on phosphorylation of Cdc25C-NLuc on S216", "setting": "[2]", "result": "reduction in phosphorylation"}
    ]},
    {"molecule": "CO[C@H]1C[C@@H]2CC[C@@H](C)[C@@](O)(O2)C(=O)C(=O)N2CCCC[C@H]2C(=O)O[C@H]([C@H](C)C[C@@H]2CC[C@@H](O)[C@H](OC)C2)CC(=O)[C@H](C)/C=C(\\C)[C@@H](O)[C@@H](OC)C(=O)[C@H](C)C[C@H](C)/C=C/C=C/C=C/1C", "note": "[rapamycin]", "values": [
      {"measurement": "EC90", "setting": "[3]", "result": 80, "unit": "nM"}
    ]},
    {"molecule": "B1", "values": [
      {"measurement": "effect on bioluminescence of co-transduced intact cells", "setting": "[4]", "result": "failed to change bioluminescence"},
      {"measurement": "nuclear bioluminescence in extracts of cells with mutant STAT1 LCI pair", "setting": "[5]", "result": "No such IFN-γ-induced increase"},
      {"measurement": "phosphorylation of STAT1-NLuc, CLuc-STAT1 and endogenous p91 and p84 STAT1", "setting": "[6]", "result": "resulted in phosphorylation"},
      {"measurement": "bioluminescence (photon flux/μg protein) in nuclear extracts of HEK-293 cells", "setting": "[7]; IFN-γ 20 min", "result": "specifically increased"},
      {"measurement": "increase in bioluminescence of nuclear extracts of U3A cells", "setting": "[7]; IFN-γ 30 min, n=3", "result": 6, "unit": "fold"}
    ]}
  ]
}
